Earlier results on one substance are cited in PMC3036710.

Holding throughout (test): solid-phase binding
Series [1] concerns the target CML-bovine serum albumin (Bos taurus) (UniProt P02769).
The target of series [2] is HMGB-1 (Homo sapiens) (UniProt P09429).
Series [3] addresses S100b calgranulin (Homo sapiens) (UniProt P04271).
UniProt P04271, sequence (P04271 2-92): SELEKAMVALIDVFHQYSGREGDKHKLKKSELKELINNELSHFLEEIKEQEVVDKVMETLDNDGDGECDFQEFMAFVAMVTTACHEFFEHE

UniProt P09429, sequence (P09429 whole entry): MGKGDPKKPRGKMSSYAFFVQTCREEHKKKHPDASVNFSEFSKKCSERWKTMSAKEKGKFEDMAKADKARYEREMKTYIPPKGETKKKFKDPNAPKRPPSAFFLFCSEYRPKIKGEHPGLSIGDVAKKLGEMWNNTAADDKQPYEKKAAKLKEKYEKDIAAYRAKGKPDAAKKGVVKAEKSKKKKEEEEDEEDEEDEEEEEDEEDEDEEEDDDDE
UniProt P02769, sequence (P02769 25-607): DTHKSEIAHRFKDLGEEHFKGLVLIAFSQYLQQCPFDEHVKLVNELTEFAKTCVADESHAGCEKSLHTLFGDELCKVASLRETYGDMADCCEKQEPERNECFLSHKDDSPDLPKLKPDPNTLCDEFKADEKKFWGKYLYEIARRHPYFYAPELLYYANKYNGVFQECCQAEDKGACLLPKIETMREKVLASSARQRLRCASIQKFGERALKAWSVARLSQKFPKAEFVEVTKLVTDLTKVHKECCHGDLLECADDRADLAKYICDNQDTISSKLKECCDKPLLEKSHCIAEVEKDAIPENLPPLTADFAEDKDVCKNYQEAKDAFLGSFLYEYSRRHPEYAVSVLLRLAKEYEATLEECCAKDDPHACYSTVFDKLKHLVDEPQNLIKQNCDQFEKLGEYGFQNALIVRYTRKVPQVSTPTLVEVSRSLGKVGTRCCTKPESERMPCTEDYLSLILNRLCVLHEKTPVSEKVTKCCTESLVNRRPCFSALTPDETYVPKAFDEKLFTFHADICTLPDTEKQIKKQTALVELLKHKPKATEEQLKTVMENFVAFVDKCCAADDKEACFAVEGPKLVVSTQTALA

Consider RAGE (from UniProt Q15109), for which the Kd in series [1] was 0.43 nM; in series [2], 0.64 nM; in series [3], 0.45 nM.

By Kd is commonly meant the free concentration of one partner at which half of the binding sites on the other are occupied at equilibrium, for simple one-to-one binding.
